The text below walks through data of US20180273626A1 (published 2018).

Usually Kd stands for the equilibrium constant for the complex coming apart. Low values mean tighter binding, high ones weaker binding.

The target in the experiment is T1, FcεRIα (human, UniProt P12319 26-201).
T1 chain: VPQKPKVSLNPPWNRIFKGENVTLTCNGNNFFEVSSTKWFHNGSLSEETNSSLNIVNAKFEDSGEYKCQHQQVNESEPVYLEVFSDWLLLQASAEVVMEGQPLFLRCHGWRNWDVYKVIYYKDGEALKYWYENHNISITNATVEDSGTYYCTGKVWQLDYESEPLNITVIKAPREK
The experiment in a line: SPR; mammalian derived. In general terms: SPR reads the build-up and loss of mass on a sensor chip optically.

B1: IgE-R419N-Fc3-4 (other)
chain: CADSNPRGVSAYLSRPSPFDLFIRKSPTITCLVVDLAPSKGTVNLTWSRASGKPVNHSTRKEEKQRNGTLTVTSTLPVGTRDWIEGETYQCNVTHPHLPRALMRSTTKTSGPRAAPEVYAFATPEWPGSRDKRTLACLIQNFMPEDISVQWLHNEVQLPDARHSTTQPRKTKGSGFFVFSRLEVTRAEWEQKDEFICRAVHEAASPSQTVQRAVSVNP
modifications: additional N-linked glycan at N419 (Asn-92 of SEQ ID NO: 2)
Molecule B1 had an equilibrium dissociation constant (Kd) of 2.26 nM.
